This series deals with the molecule itself. In words: SEC. (In gel filtration, larger molecules generally elute earlier.)

B1: mouse WT-APOA5 (mouse apolipoprotein AV with an N-terminal mouse albumin tag) (natural protein, UniProt Q8C7G5 21-368, looked up)
chain: RKSLWDYFSQNSWSKGVMGQPQKLAQENLKGSFEQDLYNMNNYLEKLGPLRGPGKEPPLLAQDPEGIRKQLQQELGEVSSRLEPYMAAKHQQVGWNLEGLRQQLKPYTAELMEQVGLSVQELQEQLRVVGEDTKAQLLGGVDEALNLLQDMQSRVLHHTDRVKELFHPYAERLVTGIGHHVQELHRSVAPHAAASPARLSRCVQTLSHKLTRKAKDLHTSIQRNLDQLRDELSAFIRVSTDGAEDGDSLDPQALSEEVRQRLQAFRHDTYLQIAAFTQAIDQETEEIQHQLAPPPPSHSAFAPELGHSDSNKALSRLQSRLDDLWEDIAYGLQDQGHSHLSDPEGHSG
The stoichiometry N is a count of units in the complex or per binding partner. In the case of B1, the “stoichiometry N” value was determined as 2.

These data come from paper PMC11046700 (Proceedings of the National Academy of Sciences of the …, 2024).
